The target of this test is Toll-like Receptor 5 (UniProt O60602). In words: cell-based or functional assay.

B1: STF2.EIII+ (protein)
chain: MAQVINTNSLSLLTQNNLNKSQSALGTAIERLSSGLRINSAKDDAAGQAIANRFTANIKGLTQASRNANDGISIAQTTEGALNEINNNLQRVRELAVQSANSTNSQSDLDSIQAEITQRLNEIDRVSGQTQFNGVKVLAQDNTLTIQVGANDGETIDIDLKQINSQTLGLDSLNVQKAYDVKDTAVTTKAYANNGTTLDVSGLDDAAIKAATGGTNGTASVTGGAVKFDADNNKYFVTIGGFTGADAAKNGDYEVNVATDGTVTLAAGATKTTMPAGATTKTEVQELKDTPAVVSADAKNALIAGGVDATDANGAELVKMSYTDKNGKTIEGGYALKAGDKYYAADYDEATGAIKAKTTSYTAADGTTKTAANQLGGVDGKTEVVTIDGKTYNASKAAGHDFKAQPELAEAAAKTTENPLQKIDAALAQVDALRSDLGAVQNRFNSAITNLGNTVNNLSEARSRIEDSDYATEVSNMSRAQILQQAGTSVLAQANQVPQNVLSLLRKGNSKLEGQLEFPRTSMEKLQLKGTTYGVCSKAFKFLGTPADTGHGTVVLELQYTGTDGPCKVPISSVASLNDLTPVGRLVTVNPFVSVATANAKVLIELEPPFGDSYIVVGRGEQQINHHWHKSGSSIGK
The molecule B1 yielded a TLR-5 EC50 (batch 052); IL-8 secretion by HEK293 cells of more than 5000 ng/mL, a TLR-5 EC50 (batch 054); IL-8 secretion by HEK293 cells of 1200 ng/mL and a TLR-5 EC50 (batch 057); IL-8 secretion by HEK293 cells of 198 ng/mL.

B2: STF2.HA1-1His(PR8), produced in Baculovirus (protein)
chain: AQVINTNSLSLLTQNNLNKSQSALGTAIERLSSGLRINSAKDDAAGQAIANRFTANIKGLTQASRNANDGISIAQTTEGALNEINNNLQRVRELAVQSANSTNSQSDLDSIQAEITQRLNEIDRVSGQTQFNGVKVLAQDNTLTIQVGANDGETIDIDLKQINSQTLGLDSLNVQKAYDVKDTAVTTKAYANNGTTLDVSGLDDAAIKAATGGTNGTASVTGGAVKFDADNNKYFVTIGGFTGADAAKNGDYEVNVATDGTVTLAAGATKTTMPAGATTKTEVQELKDTPAVVSADAKNALIAGGVDATDANGAELVKMSYTDKNGKTIEGGYALKAGDKYYAADYDEATGAIKAKTTSYTAADGTTKTAANQLGGVDGKTEVVTIDGKTYNASKAAGHDFKAQPELAEAAAKTTENPLQKIDAALAQVDALRSDLGAVQNRFNSAITNLGNTVNNLSEARSRIEDSDYATEVSNMSRAQILQQAGTSVLAQANQVPQNVLSLLASGSGSGSSHNGKLCRLKGIAPLQLGKCNIAGWLLGNPECDPLLPVRSWSYIVETPNSENGICYPGDFIDYEELREQLSSVSSFERFEIFPKESSWPNHNTNGVTAACSHEGKSSFYRNLLWLTEKEGSYPKLKNSYVNKKGKEVLVLWGIHHPPNSKEQQNLYQNENAYVSVVTSNYNRRFTPEIAERPKVRDQAGRMNYYWTLLKPGDTIIFEANGNLIAPMYAFALSRGFGSGIITSNASMHECNTKCQTPLGAINSSLPYQNIHPVTIGECPKYVRHHHHHH
In the case of B2, the TLR activity (EC50, ng/ml); IL-8 secretion by HEK293 cells is 3 ng/mL.

B3: STF2.HA1-2(PR8)mut (protein)
chain: MAQVINTNSLSLLTQNNLNKSQSALGTAIERLSSGLRINSAKDDAAGQAIANRFTANIKGLTQASRNANDGISIAQTTEGALNEINNNLQRVRELAVQSANSTNSQSDLDSIQAEITQRLNEIDRVSGQTQFNGVKVLAQDNTLTIQVGANDGETIDIDLKQINSQTLGLDSLNVQKAYDVKDTAVTTKAYANNGTTLDVSGLDDAAIKAATGGTNGTASVTGGAVKFDADNNKYFVTIGGFTGADAAKNGDYEVNVATDGTVTLAAGATKTTMPAGATTKTEVQELKDTPAVVSADAKNALIAGGVDATDANGAELVKMSYTDKNGKTIEGGYALKAGDKYYAADYDEATGAIKAKTTSYTAADGTTKTAANQLGGVDGKTEVVTIDGKTYNASKAAGHDFKAQPELAEAAAKTTENPLQKIDAALAQVDALRSDLGAVQNRFNSAITNLGNTVNNLSEARSRIEDSDYATEVSNMSRAQILQQAGTSVLAQANQVPQNVLSLLAKGAAPLQLGKCNIAGWLLGNPECDPLLPVRSWSDIAETPNSENGICYPGDFIDYEELREQLSSVSSFERFEIFPKESSWPNHNTNGVTAACSHEGKSSFYRNLLWLTEKEGSYPKLKNSYVNKKGKEVLVLWGIHHPPNSKEQQNLYQNENAYVSVVTSNYNRRFTPEIAERPKVRDQAGRMNYYWTLLKPGDTIIFEANGNLIAPMYAFALSRGFGSGIITS
As to B3, the TLR5 activity (EC50, ng/ml); IL-8 secretion by HEK293 cells was 1.2 ng/mL.

B4: STF2.HA1-3(PR8), produced in E. coli (protein)
chain: MAQVINTNSLSLLTQNNLNKSQSALGTAIERLSSGLRINSAKDDAAGQAIANRFTANIKGLTQASRNANDGISIAQTTEGALNEINNNLQRVRELAVQSANSTNSQSDLDSIQAEITQRLNEIDRVSGQTQFNGVKVLAQDNTLTIQVGANDGETIDIDLKQINSQTLGLDSLNVQKAYDVKDTAVTTKAYANNGTTLDVSGLDDAAIKAATGGTNGTASVTGGAVKFDADNNKYFVTIGGFTGADAAKNGDYEVNVATDGTVTLAAGATKTTMPAGATTKTEVQELKDTPAVVSADAKNALIAGGVDATDANGAELVKMSYTDKNGKTIEGGYALKAGDKYYAADYDEATGAIKAKTTSYTAADGTTKTAANQLGGVDGKTEVVTIDGKTYNASKAAGHDFKAQPELAEAAAKTTENPLQKIDAALAQVDALRSDLGAVQNRFNSAITNLGNTVNNLSEARSRIEDSDYATEVSNMSRAQILQQAGTSVLAQANQVPQNVLSLLANSENGICYPGDFIDYEELREQLSSVSSFERFEIFPKESSWPNHNTNGVTAACSHEGKSSFYRNLLWLTEKEGSYPKLKNSYVNKKGKEVLVLWGIHHPPNSKEQQNLYQNENAYVSVVTSNYNRRFTPEIAERPKVRDQAGRMNYYWTLLKPGDTIIFEANGNLIAPMYAFALSRG
B4 registered a TLR5 activity (EC50, ng/ml); IL-8 secretion by HEK293 cells of 1.2 ng/mL.
